assay: soluble on expression in E. coli; label from the status in PepcDB or PDB records

Soluble on expression in E. coli, not soluble:
MGSDKIHHHHHHMKTVIIVQARMTSTRLPGKVLKKVLDKPLLEYQIERLKRVKLADEIVIATTINSTDLPIIELCDRLSIPYFLGSEEDVLTRYYGAAKEHQADVVVRITSDCPLIDPLVINKVIQFFLDYRHECDYVSNSLERTYPRGMDTEVFSFLALHQAFVEAIAQPDREHVTPFIYMHPERYRLAQVVYSENQSSHRWTVDTADDFELIKRIIETLYPEIPKFTLEDCLDLFREYPDWSLINAHVEQKKYAA, MGSDKIHHHHHHMKVALRKTIGERLLELAKQDEKIVVVTSDARGSAAIADFFKVFPERSIEVGIAEQTAAGVAAGLALCGKKAWVFGPACFYSARNLEQIKNDIAYSDANVKIVAVSGGVSYGPLGSTHHALHDVAVMRAIPNLKVLLPSDAVLAAAILEQLLKDEKPVYMRTGRNPVPVIYSRDEKFEVGRAITLKEGNDITIIATGEVVWRALEAAKILEKEGISARVIDMFTVKPLDEEAVFRAARETGRIVTVEEHSIFGGLGGAVAEFLSQNLPTPMKILGIPDEYPVTGTQDEVLKHYGLAPEGIAKTVLEWFKEGN, MGSDKIHHHHHHMKVKIGDLTKIKTGKLDANVSSEDGKYPFFTCSKEPLKISTYSYDCECVLVAGNGDLNVKYYNGKFDAYQRTYIIEANGSGKLYMPYLYYFMEDYIDELRKQAIGGVIKYIKLANLTDALIELPSVDEQKSIVEILKKVKGILDKRNDEIRELDNLIKARFVEMFGDPRSNPFGFEKKRLKDTCKVITGNTPSRAIEEYYGDYIEWIKTDNIVSGILNPTQATESLSEKGMNVGRTVEKDSILMACIAGSIASIGRVCITDRTVAFNQQINAVVPEQYNILFLYVLFQMSKDYLVEDINMALKGILSKSKLEEKEFIIPPMDLQEQFSDFVKQVDKSKFDTMTFAPIYAIINLYLHTYFYQGRR, MGSDKIHHHHHHMKVMKDYKLMAVGQIVADCFDYAKVFNKYGIDFCCNGDVSLADACGKMGIDADCLLEELKQIKSEQSLTLDFKSWPIDLLVDYILKFHHRNIRYQGPQILQLLDRVCEAHAGKHPELYEVRELFQESWIDLNNHLTKEEMVLFPYIYDLFDAVAQHRPIPAFHCGSVSSPISVMMSEHDAEGERFRRISGLTHGYLVPGDACSSYRLLLEMLRTFEDNLHHHIHLENNIVFPKAIELQENCE, MGSDKIHHHHHHMKVTLIGIDLAKNVFQVCGINQAGKSVFNRALKRSQLMAFLFKYPDSIIAMEACSGSNYWGRELLTKGFEVRLIPPQHVKPFVKGNKNDRNDAFAICEAALRPNLTFVQPRTLEQTDMILAHRIRERNVENRTSLINQIRGLLNEYGVVIAQGKERLKLAIPELLENADSGLTEIARQHFQALLEEWKQVDRTIKNLEKNIKSQAKLNHQTNRLMGIKGVAEITATAAVAFAGNGAQYHNGRHFAANLGLVPREYSSGGKQKLGKITKRGNNYLRRLLVQGAWSIIRYVGNSTDRMSVWAKKLIERRGKHKAAVAVANKLARIIWSMLYNQTEYRAN, MGSDKIHHHHHHMKVTLKTLTPLHIGSGEKYPPCNLVVLKEEENKKTAVRLITRKFLEVLRKHPEIKQNISENISKPLSFKEVENVEDGVFYEVSLYSDFSSGKKNPEIPEVVHHPDGSVYVPGSSLKGAVRLALTWHVLRNNRNLLEEFRRNVQKDLQNHKRAFYQTNEFLNGLFRFAPKEINTDYFRFLRVSDSQTLRTQLVVHDVGIFYVARPNTHPRTFPLEFVPINRDFVFDVRFVKEEYDYFLTHVRKRYGVELPGSIEEIFSIVNEFYSEVFKFERERFKKAKENFEKLDTSKIEERFQKIEKVLQSKKYVLIHIGYGGGLMANSLFILLDEETRKQVRNIIKYHKDDEAPLTRRYLVQSENNSYRVISPIGWCALWLEDSQST, MGSDKIHHHHHHMKYSPASETIFVADNQERTMRVEVMEHYGLTQSIEQAGYYETAHHKQLMKDIKGAIREGRLIAVCGVVGSGKTVTLRRLQQQLLDENKIIVARSLSVDKQSVRLATLINALFYDLAQDKQVQIHKQGERRERELQELVKKGKRPVALFVDEAHDLNGNTLTGLKRLMEVVEDGGGRLSVVLAGHPKLRNDLRRPTMEEIGYRTDIFTLDGITGSQREYIQWLLKTSTGKGKPEDILTTEAVDLLAMKLRTPLQVQLHLTLAMEAGYQTGEKPITATLVESVLSRQLDDLEPTLTRHGYRLKDMVEQFDAKPAEIRALFNNQLDPARTAELRDRMLAVGLPI, MGSDKIHHHHHHMKYTIEEIRQMQEGQTFDCKSILIEPKHLATIIVAMANADGGMIAVGISDKTRRIEGVNQDKEHLNDILRTPLDFCVPSVSVTTDYVPCTDAEGRDNRVLLMHIPASPRLHANQADEVFWRVGDKSRKLTFDERLQLMYDKGERYYEDSTAYDATLDDIDMDAVKAYMKRIGYGKSAMEYLQENKGFVTYKGDVPQVSAACILLFGKHPQTFFPRARVRFIKYFGTEEKVGREMNVIKDVTFDGRILEQIQKTVEYLETQVKEHSYLGEDGIFKTDREYPKFVIQEMVVNSVCHRDYSIKGTEIQIKMFDDRLVFETPGKLPGIVRTDNIRHTHFSRNPKIAEFLKAYDYVKEFGEGVDRMCRELSALGVKEPQYNLVAFIMKATVCAKVLEERQGTNHFDQKRPESDQKSDQMRIILELIKSNPNISRTELSEKTGLHDSSVKRRLKTLVDEGLIQRVGPDKGGQWKVIGSL, MGSDKIHHHHHHMLARDKSNLKIEEIRMHKHHEIHRVKPLMPALCRIRQGKKVINWETHSLTVDNNQIILFPCGYEFYIVNYPEAGLYLAEMLYYPIDLIEKFQKFYAITDQIRNTTGFCLPQNPELIYCWEQLKTSISRGFSTQIQEHLAMGVLLSLGAHHVNCLLLSDSKQSLISRCYNLMLSEPRTKWTANKVARYLYISVSTLHRRLASEGISFQSILDDVRLNNALSCYTNDSKTHQRDCQGKWLQVSFSFY, MGSDKIHHHHHHMLATTIGSIAMRRRVSSLVKVRPAGAATQPALGLRVPLVALVQALAVAEHLNFRHAADALGISQSSVSTRIKQLEQDLGVQLFERRHRGVRLTEAGQHFLEHVATGIEHLDHAVRTAGAIARGERGRLRVGLYSSIFAGFLAELLGQFRGQYPTVDLQIMEGRARDTIRAVREARLDVAFVVGVPKVSDCHSKPLWTEALFVALPERHALAEAEGVTWPALSGASFLARTGGPGPQVHDHIVLRLAGHWCQPRIQRFDVERDTLMSMVAQGYGITLTSEAAAQVPFPGVVFRPVLDETELITFSALWSPHNRCQTLLHLLALAEQKSEGRSLGI, MGSDKIHHHHHHMLDKSRLSRFKTQIDSQTEIAKFDALAKEWRDPHGKFKHVLSFNQTRLTAIEDQIASHFGRDLTQDIPFDGLSLLDIGCGVGLLCEPLASQGARVTGIDASEHNITLAHRHANSWSIPIEYRHCLAGDLPREQPQYDVILNTEVIEHVEDQAALVASCCDLLKPGGLMVMATLNRTLRSYLIGIIGAEYIMRYLPTGTHDWHHFVTPQELDEMLTPHGLSTKGVEGMAFNPFTRRWKITSNSAVNYLLYASKPIPGVLEA, MGSDKIHHHHHHMLDPIEFIHNASSISKKSMNRLKLKTNPFSEKPIRGNTKFFVGRTSELSEIADILGAAQYGSVANAAIVGTKGIGKSSILNILYYASKRHNHWVVELEASQITARQFLIQLMYGIIKDNLFSVDGTLSSDYMKHSQKIIEIYKRLSNYSDKTPVHYPREKIERDLKYLLNEVKEENKLCVILIDEADQFAKRSCLGLLQFFHSFLYEDDILTFLAGPPTMVEDLTKISPAIRDRIPKIINMPPLTKEEAYDLIKRRLEDSQITGAKGYQPFSEQSIEKIIEECDGIPRRIIMTCSEAVSLGLKNGVDEIDDEIARNAMKNLGISVGHQILNHLTPAQSKIIKAMAELGGSSTVTELSGILNNSTGTIGTHLSDIYEMGYIYKERDGYNVYYTLSKELKDVLITKEDIS, MGSDKIHHHHHHMLDSPLSLLAGVGAEIAAGNLIPFLGPDVLTIEAEPPVPVGARTLSLALASKVGVPGRIKNNLWHSAQYIETHKHRVTLDKLMAAFFQPIPEPNALHRWLAGLPKLPMVVDTWYDGAMKAAFEAVGRESWGIVQGCSKARRLDGGVWFRAVSPDGAIVAEDVAESWRTVLYKPHGAAQPTGDVLVSDSDYVEVLTDIDIGTPIPQLVKDRRSNRGFVFLGCRFYDQILRTFARQISKRCGGPRYAVVPEELTRNELKFLEVEGITPITMPLAEAVALMTAAKTA, MGSDKIHHHHHHMLEFTLNFNDYGLKMGILTKLELDYEIDDIEKFLQFFRTMCDRFEPLIIKLGSDSVRYKEAIKELETLAHNTAWAARRLNLEEVTDFCVFCEEMMAQANRFNGPASDEFTDWMLLMSDQFEKYCRSYENDDSVLAVFNPLIVNVPNIISK, MGSDKIHHHHHHMLESTEKGEVRKTVGNYRLILMNDPNLQGAFRLNMFTDKIDITRDLGWYRESDSLTDVDLKFLVVYLEKHYGLSNEKRIEDVIKVVANENRYHPVLDRINSITWDGRERIRYALHHFLGAEVSEYTYEVMKLFMIGTIARISCPGIKFEVMLCLVGGQGAGKSTFLRFLAMEDDWFTDDLKKMDDDNVYRKIQGHLIIEFPEMVAILNAKNVEDTKSFMSRQKDTYKTPYDRHPKDHKRQCVFAGSSNSLDFLPMDRSGNRRFLPILCNMEEAETHILDDEKTSREYIDQMWAEAMEIYRSGKCQLRLPKEMEKELCEYQKQFMQEDTKKELILDYLEHYEGSMVCSRQLYSEALGNDGNPAQWEIREINDIMNNCSDWIAFSNPRHFPEPYRRQKGWEKPDNRGQDFQPITKEQMEQLSLPPEWMER, MGSDKIHHHHHHMLFHKFFDFFEGYEDCYVIIGGNAAAIWLAQDHQDFRATQDYDMVVIFENSQLGFSQKFDDFIEKYGYLCVEIGGDVNKKKVYYRFALDPALAVTGVPQQIELFSKIPLRYELRLPTETMPLHFATGPSLSAIVLNDDYYSLLKQCQQKIGHVSILSVPGLIYFKAKAHLDIRQRLANGDKLRHRANKNKHYKDVCRLCDLIIENQTFDSKVVPRTCQNDLKSFIQLVEAEPEQIFKKRFKSDPDFDLNRDEVVRVLRSLLPTS, MGSDKIHHHHHHMLGSNMLLTNRIDLRSYHTESCSHTHDFAQLVLPVSGSMELEVGHYSGVVNDDIGVYIAPNEQHCFAGSQKNLFLVIDATTQNSLRDEAFESNILNLTASTKKLIQFTHHYLAHNERDFFTDSLINQLLFHFAASSFSPEPDLVVIRAKQWIDLYFADSVNVNRVAKHCYLSISQLQRRFKQMLGCGIAEYWRMKKLLHAKKLLSQKNCSIEAIAFEVGYENLPAFSRRFSKVFGESPSQWRSKALTAKKMREIDK, MGSDKIHHHHHHMLHLNLLQVFISVAENSSFTLAGSEMHRTQSAISMKIKRLEEILGVPVFERSGKSIELTKEGAIFLTHSRRILQLVDEAMSAVGAVRKSNVVRLGCVEDYAVRTIPKILVDFWVEHPDVHIEMGTGDSASLLDRLGDDFDVVLAEHPLNSGEGEVVCTDSLVWGASANHSPHLQEPIPVAFRSQGALERQWACSALNAAGRPWRLACLSAGIGTLQTAVDAGLAVGVFKASTLAGALNRLTPADNFPQLPDVEMALHVMNDGFSQPSIMQLVKKLRESLQRPQLAAAHE, MGSDKIHHHHHHMLIISPKYLNGKIEIEKGERVGLVGKNGSGKTTLILSALCLDQTTSNVTVDDLDFCKEKDYSKISAVLQDVSSQILASTLKDEIELMKRFHSVDDKIARNLMGHYYEVEFNKLSDGYKKRYAIASVLASNPEYILLDEPFANLDDKGVKSVSTIVPKNSLIAEHRIEELRKLVDRVYMIRNNKEINEISKEKLFDIEFLRKEGLRGFSLPKINSELGNEILNVNIDNFTIKIREGEILCLLGRNGSGKTTILRKLSKKIFVIFQEVDLQFFYFTVREIVRSKRVLSLFKLENLADKSPYALSFGQKMRILIASAFSSDSRVIGLDEPSVGMDGEALLSFYEMVKMLKEQKRGLILATHDKDIISLCDTRIVID

From the DeepSol protein solubility set
